Results published in article PMC11736430, “Embedding a ribonuclease in the spore crust couples gene expression to spore development in Bacillus subtilis” (Nucleic Acids Research, 2025).

Target: the molecule itself
Assay: SEC; KapD alone on the gel-filtration column; fractions 8-16 blotted with anti-KapD; size against a molecular weight marker

B1: KapD-6xHis (enzyme, B. subtilis, UniProt O05231 1-205, looked up)
chain: MTTNSLLIIDFEFTMPDGKYSPQNFFPEIIEAGIVKSIDDEVVETFSSYVRPKKFPKLTKRCKSFLKITQKQVDEGMRFEDFIRKLNELDPEKNSTIITWGNMDMKVLKQNCMFNHIPFPFKGEMRDLSLEYKNFFGDRTLTGLWKAAEEYGDSGTGTHHKALDDALTAYKLFKLVEQDKQYLEKPKPPTIGERIDLTELLKRAT
notes: KapD, 3'-exoribonuclease of the DEDDh family, Bacillus subtilis; kapD gene amplified with oligos CC073/074 and cloned in pET28a (EcoRI/SalI); also called KapD-His; His-tagged KapD; source: E. coli BL21 CodonPlus RIL (strain CCE095); in lysate (cells lysed together with the CotY strain), and purified (His-Trap, gel filtration) for KapD alone; not shown: His6, C-terminal, kept
**Q.** For B1, which “stoichiometry N” value is on record?
**A.** Its value is 2.
